We go through four substances from patent publication US6436654.

Among the targets are GAL4/HIF 531-584 (human); GAL4/HIF 776-826 (human); GAL4/Arnt 128-603 (UniProt P04386); GAL4/Arnt 128-774 (UniProt P04386); human HIF-1α (human) (UniProt Q16665); GAL4/HIF 1-813 (human); GAL4/HIF 1-826 (human); GAL4/HIF 526-826 (human); GAL4/HIF 71-826 (human).
Holding throughout (test): cell-based or functional assay
The target of test [1] is GFP-HIF-1α (Aequeora victoria; human) [GFP: P42212].

Sequence of human HIF-1α (human) (Q16665 whole entry, the tested form may be a part): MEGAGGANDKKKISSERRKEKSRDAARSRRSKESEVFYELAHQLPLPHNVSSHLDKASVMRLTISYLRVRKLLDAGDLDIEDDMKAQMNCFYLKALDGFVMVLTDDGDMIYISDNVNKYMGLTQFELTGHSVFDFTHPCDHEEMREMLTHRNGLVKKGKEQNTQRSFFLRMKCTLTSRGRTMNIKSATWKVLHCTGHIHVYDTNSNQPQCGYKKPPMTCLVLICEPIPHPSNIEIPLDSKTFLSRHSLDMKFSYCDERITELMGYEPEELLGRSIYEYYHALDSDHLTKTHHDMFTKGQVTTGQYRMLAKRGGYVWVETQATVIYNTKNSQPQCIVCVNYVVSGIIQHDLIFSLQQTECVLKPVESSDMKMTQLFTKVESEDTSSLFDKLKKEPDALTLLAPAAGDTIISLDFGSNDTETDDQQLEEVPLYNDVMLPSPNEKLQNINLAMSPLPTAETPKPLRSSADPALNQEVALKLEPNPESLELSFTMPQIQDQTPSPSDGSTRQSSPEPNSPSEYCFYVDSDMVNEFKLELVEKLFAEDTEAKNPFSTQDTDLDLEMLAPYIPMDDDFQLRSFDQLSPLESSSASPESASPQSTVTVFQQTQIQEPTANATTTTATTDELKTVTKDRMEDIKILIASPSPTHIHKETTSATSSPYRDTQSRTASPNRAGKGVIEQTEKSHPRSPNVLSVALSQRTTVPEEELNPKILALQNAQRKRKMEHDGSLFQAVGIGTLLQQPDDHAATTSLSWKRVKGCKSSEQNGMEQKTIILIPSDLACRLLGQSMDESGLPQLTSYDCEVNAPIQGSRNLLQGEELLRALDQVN

Regarding “Ref-1 (from UniProt P27695 1-318) (enzyme)”, the GAL4-responsive reporter gene activity in COS7 cells, hypoxia, Ref-1 coexpressed with CBP and SRC-1 was found to be 12 fold with GAL4/HIF 531-584 (human) and 53 fold in the test with GAL4/HIF 776-826 (human).

Consider “human HIF-1α (from UniProt Q16665 1-826)”, for which the figures for the GAL4-responsive reporter gene activity in COS7 cells, normoxia in the test with GAL4/Arnt 128-603 and with GAL4/Arnt 128-774 were 5 fold and 4 fold, respectively.

The substance TIF2 (from UniProt Q15596 1-1464) gave a pT81/HRE-luc reporter gene activity in COS7 cells coexpressing HIF-1α and Arnt, hypoxia over normoxia in the test with human HIF-1α (human) of 12 fold.

On to “CBP (full-length mouse CBP) (from UniProt P45481 1-2441)”, for which, in the test with GAL4/HIF 1-813 (human), the GAL4-responsive reporter gene activity in COS7 cells, hypoxia is 14 fold. In the test with GAL4/HIF 1-826 (human), the GAL4-responsive luciferase reporter gene activity in COS7 cells, hypoxia came to 19 fold; the GAL4-responsive luciferase reporter gene activity in COS7 cells, normoxia lay within 2 to 3 fold; the GAL4-responsive reporter gene activity in COS7 cells, hypoxia lay within 8 to 10 fold. The GAL4-responsive reporter gene activity in COS7 cells in the test with GAL4/HIF 526-826 (human) fell in the range of 7 to 9 fold. This substance also displayed a GAL4-responsive reporter gene activity in COS7 cells, hypoxia with GAL4/HIF 531-584 (human) of 11 fold. In the test with GAL4/HIF 71-826 (human), the GAL4-responsive luciferase activity in COS7 cells, hypoxia, against hypoxia without exogenous coactivators is 30 fold. Moreover, the GAL4-responsive reporter gene activity in COS7 cells in the test with GAL4/HIF 776-826 (human) worked out at 29 fold. In addition, in [1], the HRE-luciferase reporter gene activity in COS7 cells, hypoxia turned out to be 3 fold and the HRE-luciferase reporter gene activity in COS7 cells, hypoxia over normoxia turned out to be 15 fold. The substance further yielded a pT81/HRE-luc reporter gene activity in COS7 cells coexpressing HIF-1α and Arnt, hypoxia with human HIF-1α (human) of 2 to 3 fold.
